Assay results published in US20210317225A1 (Genmab, published 2021).

T1: Human CD137 shuffle 4 (amino acids 89-114 replaced by wild boar CD137) (human, amino acids 89-114 from wild boar, UniProt Q07011 24-255)
T1 construct: also called shuffle construct 4
T1 chain: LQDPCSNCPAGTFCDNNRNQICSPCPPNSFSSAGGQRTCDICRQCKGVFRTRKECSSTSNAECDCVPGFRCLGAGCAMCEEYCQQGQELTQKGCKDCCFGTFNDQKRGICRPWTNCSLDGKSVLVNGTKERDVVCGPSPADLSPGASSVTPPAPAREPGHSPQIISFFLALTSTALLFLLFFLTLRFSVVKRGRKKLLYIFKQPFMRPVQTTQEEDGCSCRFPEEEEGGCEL

T2: Human CD137 shuffle 5 (amino acids 48-88 replaced by African elephant CD137) (human, amino acids 48-88 from African …, UniProt Q07011 24-255)
T2 construct: also called shuffle construct 5
T2 chain: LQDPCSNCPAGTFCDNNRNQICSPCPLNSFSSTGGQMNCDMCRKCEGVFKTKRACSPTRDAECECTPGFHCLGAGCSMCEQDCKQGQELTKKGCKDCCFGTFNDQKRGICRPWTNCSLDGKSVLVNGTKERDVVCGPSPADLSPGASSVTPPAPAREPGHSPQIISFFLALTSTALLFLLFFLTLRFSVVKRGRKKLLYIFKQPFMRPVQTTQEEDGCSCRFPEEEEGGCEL

T3: Human CD137 shuffle 2 (amino acids 139-161 replaced by wild boar CD137) (human, amino acids 139-161 from wild …, UniProt Q07011 24-255)
T3 construct: also called shuffle construct 2
T3 chain: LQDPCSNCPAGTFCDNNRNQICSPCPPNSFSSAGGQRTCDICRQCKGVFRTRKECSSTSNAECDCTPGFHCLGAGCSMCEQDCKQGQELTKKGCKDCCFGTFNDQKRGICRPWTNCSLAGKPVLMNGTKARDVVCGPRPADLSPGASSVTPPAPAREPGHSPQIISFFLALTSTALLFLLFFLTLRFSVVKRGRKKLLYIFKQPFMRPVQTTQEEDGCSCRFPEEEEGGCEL

T4: Human CD137 shuffle 1 (amino acids 162-186 replaced by wild boar CD137) (human, amino acids 162-186 from wild …, UniProt Q07011 24-255)
T4 construct: also called shuffle construct 1
T4 chain: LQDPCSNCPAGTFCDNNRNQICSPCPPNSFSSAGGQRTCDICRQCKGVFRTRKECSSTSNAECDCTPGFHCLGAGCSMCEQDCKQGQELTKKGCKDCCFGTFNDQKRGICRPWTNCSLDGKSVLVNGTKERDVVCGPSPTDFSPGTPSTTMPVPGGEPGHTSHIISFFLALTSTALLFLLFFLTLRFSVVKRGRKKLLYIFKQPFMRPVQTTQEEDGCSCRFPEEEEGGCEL

T5: Human CD137 shuffle 3 (amino acids 115-138 replaced by wild boar CD137) (human, amino acids 115-138 from wild …, UniProt Q07011 24-255)
T5 construct: also called shuffle construct 3
T5 chain: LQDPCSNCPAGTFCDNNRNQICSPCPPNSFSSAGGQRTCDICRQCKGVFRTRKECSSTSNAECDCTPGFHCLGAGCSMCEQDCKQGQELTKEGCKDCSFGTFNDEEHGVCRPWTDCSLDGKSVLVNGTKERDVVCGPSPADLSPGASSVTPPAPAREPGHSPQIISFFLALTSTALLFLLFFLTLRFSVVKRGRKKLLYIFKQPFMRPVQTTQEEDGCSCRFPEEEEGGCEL

T6: Human CD137 shuffle 6 (amino acids 24-47 replaced by wild boar CD137) (human, amino acids 24-47 from wild boar, UniProt Q07011 26-200)
T6 construct: also called shuffle construct 6
T6 chain: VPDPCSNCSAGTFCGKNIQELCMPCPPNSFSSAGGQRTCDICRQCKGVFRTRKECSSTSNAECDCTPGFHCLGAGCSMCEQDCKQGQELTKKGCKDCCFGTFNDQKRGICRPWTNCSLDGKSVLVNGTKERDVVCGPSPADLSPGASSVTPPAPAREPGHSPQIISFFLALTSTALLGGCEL

B1: CD137 antibody clone 005 (rabbit) (antibody, human IgG1, kappa, V domains shown)
VH: QSVEESGGRLVTPGTPLTLTCTASGFTISDFHVTWVRQAPGKGLEWIGTIITSASTTAYATWARGRFTISKSSTTVNLKIVSPTTEDTATYFCARSTYTDTSGYYFDFWGQGTLVTVSS
VL: AQVLTQTASPVSAAVGGTVIINCQSSQSIYNGNRLSWYQQKPGQPPKLLIYSASTLASGVSSRFKGSGSGTQFTLAISDVQSDDAATYYCLGSYDCDSADCFAFGGGTEVVVER
notes: also called Clone 5; CD137 clone 005
B2: CD137 antibody clone 009 (rabbit) (antibody, human IgG1, kappa, V domains shown)
VH: QSLEESGGRLVTPGTPLTLTCTVSGFSLNDYWMSWVRQAPGKGLEWIGYIDVGGSLYYASWAKGRFTISRTSTTVDLKMTSLTTEDTATYFCARGGLTYGFDLWGPGTLVTVSS
VL: DIVMTQTPASVSEPVGGTVTINCQASEDISSYLAWYQQKPGQRPKRLIYGASDLASGVPSRFSASGSGTEYALTISDLESADAATYYCHYYATISGLGVAFGGGTEVVVKR
notes: also called Clone 9; CD137 clone 009
B3: CD137 antibody clone 004 (rabbit) (antibody, human IgG1, kappa, V domains shown)
VH: QSLEESGGRLVTPGTPLTLTCTASGFSLSRYDMSWVRQAPGKGLEYIGVISSSGGTNYANWAKGRFTISKTSTTVDLKITSPTTEDTATYFCAREGDYWDFNLWGPGTLVTVSS
VL: AQVLTQTPSSVSAAVGGTVTINCQASQSISNLLAWYQQKPGQPPKLLIYGASTLASGVPSRFSGSGSGTEFTLTISDLESDDAATYYCAGGFPGLDTVAAFGGGTEAVVTR
notes: also called Clone 4; CD137 clone 004
B4: CD137 antibody clone 010 (rabbit) (antibody, human IgG1, kappa, V domains shown)
VH: QSVEESGGRLVTPGTPLTLTCTVSGFSLSTYAMIWVRQAPGKGLEWIGVVYDNGYISHATWVKGRFTISKTSTTVGLEITSPTTEDTATYFCARSADGSWSTYFNLWGQGTLVTVSS
VL: DIVMTQTPASVEAAVGGTVTIKCQASESISNYLAWYQQKPGQPPKLLIYKASTLASGVSSRFKGSGSGTEFTLTISDLESADAATYYCQTNYCCSSSDNGFAFGGGTEVVVKR
notes: also called Clone 10; CD137 clone 010
B5: CD137 antibody clone 011 (rabbit) (antibody, human IgG1, kappa, V domains shown)
VH: QSLEESGGRLVTPGTPLTLTCTVSGIDLSSYHMCWVRQAPGKGLEYIGYIAYGGNTYYANWAKGRFTISKTSTTVDLRITSPTTEDTATYFCARGYSEDSYWGLWGPGTLVTVSS
VL: AYDMTQTPASVEAAVGGTVTIKCQASQNIENYLAWYQQKPGQPPKLLIYDTSKLTSGVPSRFSGSGSGTDFTLTISGVQSDDAATYYCQQDYGIIFVDNIFGGGTEVVVKR
notes: also called Clone 11; CD137 clone 011

How the values were obtained:
[1] = molecular target: T1, Human CD137 shuffle 4 (amino acids …); experiment: flow cytometry on transfected HEK293T-17 cells, 1 µg/mL antibody
Procedure: (§1) 3×10⁶ HEK293T-17 cells were seeded in T75 culture flasks (Greiner Bio-One, cat. no. 658175) in 20 mL RPMI 1640 GlutaMAX medium containing 10% FCS (Biochrom, cat. no. S 0115). After O/N incubation, cells were transiently […] with expression vectors encoding the shuffle constructs or the wild boar, African elephant or human CD137 downstream of a constitutively active human elongation factor-1 alpha (EF-1 alpha) promotor using TransIT®-LT1 Transfection Reagent, Mirus Bio (VWR International, cat. no. 731-0029), according to the manufacturer's instructions. The next day, cells were harvested using 1.5 mL Accutase (Sigma Aldrich, cat. no. A6964) (incubation at 37° C. for 5 min.) and flow cytometry was performed, essentially as described in Example 4, to measure surface expression of the shuffle constructs and the human, African elephant and wild boar CD137 and to measure binding of the antibody clones to the different shuffle constructs. To measure cell surface expression of the constructs, transduced cells were incubated with 1 μg/mL goat polyclonal anti-human CD137 (R&D Systems, cat. no. AF838) in FACS buffer (D-PBS supplemented with 5 mM EDTA [Sigma Aldrich, cat. no. 03690] and 5% (v/v) fetal bovine serum [FBS, Biochrom, cat. no. S 0115]) (4° C., 20 min.), followed by incubation with APC-labeled anti-goat IgG (H+L) (R&D Systems, cat. no. F0108) (4° C., 20 min.). Binding of the different CD137 antibody clones to cells expressing the shuffle constructs was measured by incubation of the transduced cells with 1 μg/mL of the antibody clones, followed by APC-labeled AffiniPure F(ab′)2 Fragment (1:50 final dilution; Jackson, cat. no. 109-136-127).

[2] = molecular target: T2, Human CD137 shuffle 5 (amino acids …); experiment: as above
Procedure: as §1

[3] = molecular target: T3, Human CD137 shuffle 2 (amino acids …); experiment: as above
Procedure: as §1

[4] = molecular target: T4, Human CD137 shuffle 1 (amino acids …); experiment: as above
Procedure: as §1

[5] = molecular target: T5, Human CD137 shuffle 3 (amino acids …); experiment: as above
Procedure: as §1

[6] = molecular target: T6, Human CD137 shuffle 6 (amino acids …); experiment: flow cytometry on transfected HEK293T-17 cells
Procedure: as §1

[7] = molecular target: T7, Human CD137 (TNR9_Human) (human, UniProt Q07011 24-255); experiment: flow cytometry, HEK293-T17 cells transiently transfected with human CD137, antibody at 1 µg/mL, APC-labeled F(ab')2 secondary
T7 construct: Full-length human CD137 expressed on HEK293T-17, NF-kB/293/GFP-Luc or K562 cells, or native on T cells; also called hCD137 wt; 4-1BB
Procedure: (§2) FIG. 4: Binding of CD137 antibody clones to CD137 shuffle constructs expressed on HEK293-T17 cells. HEK293-T17 cells were transfected with the CD137 shuffle constructs, and with human CD137 (hCD137 wt), African elephant of wild boar CD137, as indicated. Binding of the different CD137 antibody clones to these constructs expressed on HEK293-T17 cells was measured by flow cytometry. Staining with polyclonal anti-CD137 antibody is shown as a control.
as §1
Target sequence in this assay (Q07011 24-255): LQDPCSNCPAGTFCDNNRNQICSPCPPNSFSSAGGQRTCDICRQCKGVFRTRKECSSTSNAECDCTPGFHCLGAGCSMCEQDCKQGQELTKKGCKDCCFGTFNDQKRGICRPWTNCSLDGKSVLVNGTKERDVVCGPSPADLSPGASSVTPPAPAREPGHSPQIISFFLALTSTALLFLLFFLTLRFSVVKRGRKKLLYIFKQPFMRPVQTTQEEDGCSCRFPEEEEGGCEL

[8] = molecular target: T7, Human CD137 (TNR9_Human); experiment: flow cytometry, HEK293-T17 cells transiently transfected with human CD137, antibody at 1 µg/mL, APC-labeled F(ab')2 secondary [cont.]
Procedure: as §2, §1

[9] = molecular target: T2, Human CD137 shuffle 5 (amino acids …); experiment: flow cytometry on transfected HEK293T-17 cells
Procedure: as §1

[10] = molecular target: T1, Human CD137 shuffle 4 (amino acids …); experiment: flow cytometry on transfected HEK293T-17 cells
Procedure: as §1

[11] = molecular target: T5, Human CD137 shuffle 3 (amino acids …); experiment: flow cytometry on transfected HEK293T-17 cells
Procedure: as §1

| Binder | binding result [1] | binding result [2] | binding result [3] | binding result [4] | binding result [5] | binding result [6] | binding result [7] | binding result [8] | binding result [9] | binding result [10] | binding result [11] |
| --- | --- | --- | --- | --- | --- | --- | --- | --- | --- | --- | --- |
| B1 | binds | binds | binds | binds | binds | no binding (tested: 1 µg/mL) | binds |  |  |  |  |
| B2 | binds |  | binds | binds | binds |  |  | binds | no binding (tested: 1 µg/mL) |  |  |
| B3 |  | binds | binds | binds |  |  | binds |  |  | no binding (tested: 1 µg/mL) | no binding (tested: 1 µg/mL) |
| B4 | binds |  | binds | binds | binds |  |  | binds | no binding (tested: 1 µg/mL) |  |  |
| B5 |  | binds | binds | binds |  |  |  | binds |  | no binding (tested: 1 µg/mL) | no binding (tested: 1 µg/mL) |
